From the supplement of paper PMC11136658

Tested on: peptide library, one residue held at a place counted from the Y acceptor
Assay: relative phosphorylation of the sub-library (ratio to the mean residue at this position); higher = residue favoured
Outline: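 Every value reflects phosphorylation relative to the mean randomized residue. The sum of the 18 randomized residues, or 16 in the Ser/Thr-free library, served to normalize intensities at each position, which were then multiplied by that number. Intensities came from phosphorimaging with ImageQuant of biotinylated Tyr-centred peptides captured on streptavidin membranes after 90 min with purified recombinant kinases and 50 μM ATP plus γ-32P-ATP.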

Sequence of DDR1, construct: aa444-end, human (Q08345 444-913, looked up): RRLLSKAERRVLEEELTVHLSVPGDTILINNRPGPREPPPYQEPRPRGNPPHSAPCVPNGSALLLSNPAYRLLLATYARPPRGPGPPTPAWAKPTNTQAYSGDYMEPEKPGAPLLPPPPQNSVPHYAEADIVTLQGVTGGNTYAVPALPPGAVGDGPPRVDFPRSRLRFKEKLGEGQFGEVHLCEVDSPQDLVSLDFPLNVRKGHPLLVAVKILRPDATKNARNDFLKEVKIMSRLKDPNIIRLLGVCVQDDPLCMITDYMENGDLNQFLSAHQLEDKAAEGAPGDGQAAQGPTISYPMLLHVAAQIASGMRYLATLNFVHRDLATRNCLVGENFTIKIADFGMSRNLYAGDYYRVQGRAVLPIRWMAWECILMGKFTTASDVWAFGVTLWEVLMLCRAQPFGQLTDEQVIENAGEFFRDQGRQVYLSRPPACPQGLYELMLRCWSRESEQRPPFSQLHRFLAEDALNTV

DDR1, construct: aa444-end, human (from UniProt Q08345)
relative phosphorylation
Conditions	at +1	at +2	at +3	at +4	at +5	at -1	at -2	at -3	at -4	at -5
A fixed	1.61	0.998	0.762	0.858	0.675	1.07	1.08	1.02	1.18	1.16
D fixed	0.629	0.815	0.717	0.883	0.561	1.35	0.723	0.719	0.772	0.767
E fixed	0.665	1.36	0.716	0.964	0.549	0.785	0.748	0.717	0.798	0.759
F fixed	1.62	1.04	1.38	2.72	3.66	1.13	0.804	1.18	1.16	1.38
G fixed	0.639	0.629	0.633	0.621	0.701	0.7	1.07	0.946	1.05	1.06
H fixed	1.07	0.986	1.16	1.19	1.03	1.14	1.24	1.45	1.13	1.13
I fixed	0.955	1.1	1.63	1.01	1.49	0.938	0.721	0.828	0.716	0.728
K fixed	0.817	0.809	0.736	0.743	0.623	0.81	1.44	1.35	1.4	1.34
L fixed	0.781	1.42	1.56	0.985	1.21	0.958	0.794	0.773	0.81	0.736
M fixed	0.972	1.26	1.58	0.982	1.08	0.825	0.79	0.82	0.949	0.816
N fixed	0.846	0.891	0.755	0.75	0.586	2.03	1.24	1.05	0.924	1.03
P fixed	0.677	0.738	0.619	0.752	1.05	0.971	1.18	0.871	1.05	1.02
Q fixed	0.916	0.888	0.74	0.806	0.598	0.934	1.05	0.96	1.09	1.02
R fixed	0.963	0.845	0.784	0.807	0.732	0.806	1.63	1.49	1.48	1.44
S fixed	0.974	0.796	0.602	0.56	0.617	0.92	1.11	0.975	0.835	0.896
T fixed	1.14	0.912	0.744	0.678	0.667	0.835	0.904	0.91	0.829	0.853
V fixed	1.72	1.29	1.46	1.25	1.02	0.917	0.73	0.786	0.798	0.823
W fixed	1	1.22	1.43	1.44	1.14	0.886	0.747	1.15	1.03	1.04
pThr fixed	0.793	1.37	0.799	1.1	0.686	0.743	0.653	0.678	0.726	0.775
pTyr fixed	1.03	2	0.914	1.43	0.653	0.867	0.713	0.849	0.908	0.953
